Literature values in PMC7900953, “Location of a single histidine within peptide carriers increases mRNA delivery” (The Journal of Gene Medicine, 2020).
Where no end group is shown, it is not given here.

System: human cells
Conditions: cited from earlier work

H3k4b (KHHHKHHHKHHHKHHHK; also: four-branched lysine core)
Cytotoxicity to human cells: no observed cytotoxicity to human cells
